Results on five substances are retold here after PMC12301659.

Test [1] has as its target separase [also known as separin (ESPL1)], endogenous [human (endogenous in HCT116)]. The test is described as follows: proximity ligation assay (PLA). To be noted: HCT116 cells stably expressing GFP–Centrin2; antibodies against HA and separase; parent: 44; read off a plot.
Test [2] addresses 14-3-3ε (endogenous) [human (endogenous in HCT116)]. The experiment in a line: proximity ligation assay (PLA). To be noted: HCT116 cells stably expressing GFP–Centrin2; antibodies to the Myc epitope tag and 14-3-3ε; parent: 52; read off a plot.

Regarding “HA-tagged 14-3-3ε WT mutant D127A [not stated] / separase [also known as separin (ESPL1)], endogenous [human (endogenous in HCT116)] chain 1 D127A”, in test [1], the response (puncta per cell) stood at 63.

On to “HA-tagged 14-3-3ε WT mutant D127A; E134A [not stated] / separase [also known as separin (ESPL1)], endogenous [human (endogenous in HCT116)] chain 1 D127A, chain 1 E134A”, for which the response (puncta per cell) in test [1] stood at 19. As for “HA-tagged 14-3-3ε WT mutant E134A [not stated] / separase [also known as separin (ESPL1)], endogenous [human (endogenous in HCT116)] chain 1 E134A”, the response (puncta per cell) in test [1] was determined as 8.

“Myc-tagged separase (FL) mutant S1501A [human] / 14-3-3ε (endogenous) [human (endogenous in HCT116)] chain 1 S1501A”: the response (puncta per cell) in test [2] is 0.5. In the case of “Myc-tagged separase (FL) mutant T1363A [human] / 14-3-3ε (endogenous) [human (endogenous in HCT116)] chain 1 T1363A”, in test [2], the response (puncta per cell) was determined as 45.
